molecular target: cynomolgus LAG-3 ECD/Fc fusion protein (cynomolgus monkey); test: ELISA, coated cynoLAG-3 ECD/Fc
Sequence (chain, as listed by the source limits assumed, form in doubt): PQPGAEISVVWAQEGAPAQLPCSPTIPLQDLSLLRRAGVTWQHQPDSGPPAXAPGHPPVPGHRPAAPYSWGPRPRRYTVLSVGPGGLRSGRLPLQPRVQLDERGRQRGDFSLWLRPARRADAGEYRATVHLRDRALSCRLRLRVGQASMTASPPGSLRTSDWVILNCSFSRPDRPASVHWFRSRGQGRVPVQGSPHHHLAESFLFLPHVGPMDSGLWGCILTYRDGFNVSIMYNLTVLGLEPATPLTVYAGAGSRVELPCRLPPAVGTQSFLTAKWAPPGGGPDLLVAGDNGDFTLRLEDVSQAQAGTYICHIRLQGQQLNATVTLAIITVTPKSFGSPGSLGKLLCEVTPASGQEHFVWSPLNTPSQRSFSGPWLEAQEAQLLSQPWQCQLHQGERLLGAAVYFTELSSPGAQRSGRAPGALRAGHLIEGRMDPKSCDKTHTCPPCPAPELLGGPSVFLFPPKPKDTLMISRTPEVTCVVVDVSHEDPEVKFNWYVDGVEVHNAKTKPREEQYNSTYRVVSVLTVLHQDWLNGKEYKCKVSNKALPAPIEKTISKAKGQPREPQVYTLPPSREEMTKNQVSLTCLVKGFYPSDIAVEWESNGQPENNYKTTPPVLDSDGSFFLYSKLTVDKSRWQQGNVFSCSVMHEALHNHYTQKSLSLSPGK

| EC50 | Binder |
| --- | --- |
| 0.32 nM | mAb750 (antibody, V domains shown) VH: EVQLQQSGAELVRPGASVKLSCTPSGLNIKDDYIHWVKQRPEQGLEWIGWIDPENGDTEYASKFQGKATITADTSSNTAYLQLSSLTSEDSAVYYCCTADYRNWYWGQGTTLTVSS VL: not shown |
| 0.32 nM | mAb742 (antibody, V domains shown) VH: QGQLQQSGAELVRPGASVTLSCKASGYTFNDYEMHWVKQTPVHGLEWIGAIDPETGGTAYNQKFKGKAILTADKSSSTAYMELRSLTSEDSAVYYCIRWGSTVFPYWGQGTLVTVS VL: DGVLTQTPLSLPVNIGDQASISCKSTKSLLNSDGFTYLDWYLQKPGQSPQLLIYLVSNRFSGVPDRFSGSGSGTDFTLKISRVEAEDLGVYYCFQSNYLPWTFGGGTKLEIK |
| 0.21 nM | mAb744 (antibody, V domains shown) VH: QVQLQQSGAELVRPGTSVTLSCKASGYTFTDYEMHWMKQTPVHGLEWIGAIDPATGGTAYNQKFKGKAILTADKSSSTAYMDFRSLTSEDSAVYYCIRWGTTVFPYWGQGTLVTVS VL: DVVLTQTPLSLPVNIGDQASISCKSTKSLLNSDGFTYLDWYLQKPGQSPQLLIYLVSNRFSGVPDRFSGSGSGTDFTLKISRVEAEDLGVYYCFQSNYLPWTFGGGTKLEIK |
| 0.21 nM | mAb746 (antibody, V domains shown) VH: EVQLQQSGAELVRPGASVKLSCTASDFNIKDDYMHWVKQRPEQGLDWIGWIVPENGNTEYASKFQGKATITADTSSNTAYLQLSSLTSEDTAVYYCTVYGDYWGQGTTLTVSS VL: DIQMTQSPSSLSASLGERVSLNCRASQEISGYLSWLQQKSDGTIKRLIYAASTLDSGVPKRFSGSRSGSDYSLTISSLESEDFADYYCLQYASYPLTFGAGTKLELK |
| 0.34 nM | mAb747 (antibody, V domains shown) VH: EVQLQQSGAELVRPGASVKLSCTASDFNIKDDYMHWVKQRPEQGLDWIGWIVPENGNTEYASKFQGKATITADTSSNTAYLQLSSLTSEDTAVYYCTVYGDYWGQGTTLTVSS VL: DIQMTQSPSSLSASLGERVSLNCRASQEISGYLSWLQQKPDGTIKRLIYAASTLDSGVPKRFSGSRSGSDYSLTISSLESEDFAAYYCLQYASYPLTFGAGTKLELK |
| 0.33 nM | mAb749 (antibody, V domains shown) VH: EVQLQQSGAELVRPGASVKVSCTASDFNIKDDYVHWVKQRPEQGLEWIGWIDPENGDTEYASKFQGKATITADTSSNTAYLQLSSLTSEDTAVYFCSTWDAEENYWGQGTTLSVSS VL: DIVLTQAAPSVPVTPGESVSISCRSSKSLLHSNGNTYLYWFLQRPGQSPQVLIYRMSNLASGVPVRFSGSGSGTAFTLRISRVEAEDVGVYYCMQHLEYPFTFGSGTKLEIK |
| 0.25 nM | mAb748 (antibody, V domains shown) VH: EVQMQQSGAELVRPGASVKLSCTVSGFNIKDDYMHWVKQRPEQGLEWIGWIDPENGDTEYASKFQGKATITADTSSNTAYLQLNSLTSEDTAVYYCTYFDYWGQGTTLTVSS VL: not shown |

— patent US20210188980A1
